Results from patent US20240116985A1, “STAPLED PEPTIDES AND METHODS THEREOF” (priority 2020, published 2024).
Starred links: 1 amine or outer side, 2 acyl side, 3 side chain; linkers in the order of their positions; H or OH if unused. Positions of bridges follow the written chain, without caps; N, C: chain ends. Non-standard residues stand in square brackets, D forms with d. Primed or numbered codes have the meaning given here. PyrS2″ = (S)-3-amino-1-((pent-4-en-1-yloxy)carbonyl)pyrrolidine-3-carboxylic acid (stapling residue), C=CCCCOC(=O)N1CC[C@@](N[*:1])(C(=O)[*:2])C1; B5(4) = 2,2-bis(4-pentenyl)glycine = 2-amino-2-(pent-4-en-1-yl)hept-6-enoic acid (stitching residue), C=CCCCC(CCCC=C)(N[*:1])C(=O)[*:2]; B5(5) = 2,2-bis(4-pentenyl)glycine, 2-amino-2-(pent-4-en-1-yl)hept-6-enoic acid (stitching residue), C=CCCCC(CCCC=C)(N[*:1])C(=O)[*:2]; PyrS2 = (S)-3-amino-1-((pent-4-en-1-yloxy)carbonyl)pyrrolidine-3-carboxylic acid, C=CCCCOC(=O)N1CC[C@@](N[*:1])(C(=O)[*:2])C1; Me2Asn = listed as N4-methyl-L-asparagine, CNC(=O)C[C@H](N[*:1])C(=O)[*:2]; Phe(3-COOH) = N[C@@H](Cc1cccc(C(=O)O)c1)C(=O)O; Bta = N[C@@H](Cc1csc2ccccc12)C(=O)O; Lys(iPr) = CC(C)NCCCC[C@H](N)C(=O)O; αAllylPro = C=CC[C@@]1(C(=O)O)CCCN1; tBuAla = CC(C)(C)C[C@H](N)C(=O)O; 3Thi = N[C@@H](Cc1ccsc1)C(=O)O; Cha = N[C@@H](CC1CCCCC1)C(=O)O; hSer = N[C@@H](CCO)C(=O)O; 34ClF = not defined here; Nle = CCCC[C@H](N)C(=O)O; Aib = CC(C)(N)C(=O)O

B1: I-1644 (peptide)
peptide: Ac-[αAllylPro]N[tBuAla][B5(4)]DQ[Lys(iPr)]AFL[PyrS2]F[Bta][tBuAla]-NH2
modifications: staple 1-4, 4-11
B2: I-1645 (peptide)
peptide: Ac-[αAllylPro]N[tBuAla][B5(4)]DQ[Lys(iPr)]AFL[PyrS2]F[Bta][Lys(iPr)]-NH2
modifications: staple 1-4, 4-11
B3: I-1646 (peptide)
peptide: Ac-[αAllylPro]N[tBuAla][B5(4)]DQ[Lys(iPr)]AFL[PyrS2]F[Bta][hSer]-NH2
modifications: staple 1-4, 4-11
B4: I-1649 (peptide)
peptide: Ac-[αAllylPro]N[tBuAla][B5(4)]DQ[Lys(iPr)]A[Cha]L[PyrS2]F[Bta]Q-NH2
modifications: staple 1-4, 4-11
B5: I-1650 (peptide)
peptide: Ac-[αAllylPro]N[tBuAla][B5(5)]DQ[Lys(iPr)]AF[Cha][PyrS2]F[Bta]Q-NH2
modifications: staple 1-4, 4-11
B6: I-1651 (peptide)
peptide: Ac-[αAllylPro]N[tBuAla][B5(5)]DQ[Lys(iPr)]AFL[PyrS2″][Cha][Bta]Q-NH2
modifications: staple 1-4, 4-11
B7: I-1652 (peptide)
peptide: Ac-[αAllylPro]N[tBuAla][B5(5)]DQ[Lys(iPr)]AFL[PyrS2″]F[Bta][Cha]-NH2
modifications: staple 1-4, 4-11
B8: I-1653 (peptide)
peptide: Ac-[αAllylPro]N[tBuAla][B5(5)]DQ[Lys(iPr)]AF[Lys(iPr)][PyrS2″]F[Bta]Q-NH2
modifications: staple 1-4, 4-11
B9: I-1654 (peptide)
peptide: Ac-[αAllylPro]N[tBuAla][B5(5)]DQ[Lys(iPr)]AF[Lys(iPr)][PyrS2″]F[Bta][Lys(iPr)]-NH2
modifications: staple 1-4, 4-11
B10: I-2182 (peptide)
peptide: Ac-[αAllylPro]D[tBuAla][B5(4)]DDAAFN[PyrS2″][3Thi][34ClF]Q-NH2
modifications: staple 1-4, 4-11; reading uncertain; also: printed as Ac-PL3-Asp-Npg-B5-Asp-Asp-Ala-Ala-Phe-Asn-PyrS2-3Thi-34C1F-Gln-NH2
B11: I-2189 (peptide)
peptide: Ac-[αAllylPro]D[tBuAla][B5(4)]D[Phe(3-COOH)][Nle]AFL[PyrS2″][3Thi][Bta]V-NH2
modifications: staple 1-4, 4-11
B12: I-2191 (peptide)
peptide: Ac-[αAllylPro]D[tBuAla][B5(4)]D[Phe(3-COOH)][Me2Asn]AFL[PyrS2″][3Thi][Bta]V-NH2
modifications: staple 1-4, 4-11
B13: I-2192 (peptide)
peptide: Ac-[αAllylPro]D[tBuAla][B5(4)]D[Phe(3-COOH)]QAFL[PyrS2″][3Thi][Bta][tBuAla]-NH2
modifications: staple 1-4, 4-11
B14: I-2193 (peptide)
peptide: Ac-[αAllylPro]D[tBuAla][B5(4)]D[Phe(3-COOH)][Nle]AFL[PyrS2″][3Thi][Bta][tBuAla]-NH2
modifications: staple 1-4, 4-11
B15: I-2194 (peptide)
peptide: Ac-[αAllylPro]D[tBuAla][B5(4)]D[Phe(3-COOH)][Aib]AFL[PyrS2″][3Thi][Bta][tBuAla]-NH2
modifications: staple 1-4, 4-11

The binders below were run against full-length beta-Catenin (Uniprot ID P35222) (Homo sapiens (Human)) (UniProt P35222) (assay: fluorescence polarization competition; 10 nM full-length beta-catenin, 10 nM 5FAM-TCF4(10-53) probe).
Work on B1 yielded an IC50 of 10000 nM.
In the case of B2, the IC50 is reported as 940 nM.
Work on B3 yielded an IC50 of 640 nM.
With B4 the IC50 was 2480 nM.
In the case of B5, the IC50 is reported as 1680 nM.
B6 was tested, and the IC50 was 3970 nM.
B7 was tested, and the IC50 was 10000 nM.
With B8 the IC50 was 903 nM.
B9 showed an IC50 of 2130 nM.
B10 was tested, and the IC50 was 5 nM.
For B11, the IC50 was 83 nM.
B12 gave an IC50 of 16 nM.
With B13 the IC50 was 22 nM.
B14 showed an IC50 of 164 nM.
Work on B15 yielded an IC50 of 91 nM.
